From patent publication US20190183966A1 (EXTEND BIOSCIENCES, published 2019)

What was measured:
[1] = biological target: T1, PTH1 receptor expressed on mammalian cells (UniProt Q03431 27-593, limits assumed); test: cell-based or functional assay
T1 sequence (looked up): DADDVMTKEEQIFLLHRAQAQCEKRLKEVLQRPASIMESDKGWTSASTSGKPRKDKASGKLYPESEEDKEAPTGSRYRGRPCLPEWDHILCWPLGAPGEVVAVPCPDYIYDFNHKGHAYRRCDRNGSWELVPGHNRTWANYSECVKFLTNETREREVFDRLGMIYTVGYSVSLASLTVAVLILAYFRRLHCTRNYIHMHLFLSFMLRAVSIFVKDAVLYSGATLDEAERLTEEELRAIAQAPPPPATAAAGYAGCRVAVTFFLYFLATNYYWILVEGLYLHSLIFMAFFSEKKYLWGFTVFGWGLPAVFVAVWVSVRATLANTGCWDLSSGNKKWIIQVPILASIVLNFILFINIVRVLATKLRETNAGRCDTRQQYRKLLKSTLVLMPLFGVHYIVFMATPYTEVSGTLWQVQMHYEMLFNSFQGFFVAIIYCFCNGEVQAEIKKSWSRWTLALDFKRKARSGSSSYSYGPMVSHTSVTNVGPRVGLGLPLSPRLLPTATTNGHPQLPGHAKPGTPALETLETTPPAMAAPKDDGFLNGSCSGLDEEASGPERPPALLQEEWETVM

[2] = biological target: human GLP-1 receptor (GLP1R) stably expressed on PathHunter cells (human, UniProt P43220 24-463); test: cell-based or functional assay

Calcium EC50 [1] | cAMP EC50 [1] | EC50, recruitment of beta-Arrestin [2] | Binder
14 nM | 0.0186 nM | – | SVSEIQLMHNLGKHLNSMERVEWLRKKLQDVHNFC (C-terminal cysteine thiol conjugated to VitD-(3)-PEG2K-maleimide carrier) [PTH-C-PEG2K-(3)-VitD]
– | – | 510 nM | HAEGTFTSDVSSYLEGQAAKEFIAWLVKGRGC (C-terminal cysteine thiol conjugated to VitD-(25)-PEG2K-maleimide carrier) [GLP-1-C-PEG2K-(25)-VitD]
– | – | 520 nM | HAEGTFTSDVSSYLEGQAAKEFIAWLVKGRGC (C-terminal cysteine thiol conjugated to VitD-(3)-PEG2K-maleimide carrier) [GLP-1-C-PEG2K-(3)-VitD]
